“Also recorded” adds a separate entry of the source. Where two headings read alike, the source gives them in different places.
B1: M1: mouse monoclonal antibody, heavy chain SEQ ID NO:2, light chain SEQ ID NO:4 (antibody, listed as Mus musculus)
heavy: EVQLEQPGAELVKPGASVKLSCKASGYTFTSYYMYWVKQRPGQGLEWIGGINPSNGGTNFNEKFKNKATLTVDKSSSTAYMQLSSLTSEDSAVYYCTREGNPYYTMNYWGQGTSVTVSSAKTTPPSVY
light: DIVMTQTPASLAVSLGQRATISYRASKSVSTSGYSYMHWNQQKPGQPPRLLIYLVSNLESGVPARFSGSGSGTDFTLNIHPVEEEDAATYYCQHIRELTRSEGGPSWK
B2: M7: mouse monoclonal antibody, heavy chain SEQ ID NO:10, light chain SEQ ID NO:12 (antibody, listed as Mus musculus)
heavy: LEQPGAELVRPGASVMLSCKASGYIFTTYWMHWLKQRPGQGLDWIGEISPSNGRSNYNKKFKSKATLTVDKSSSTAYMQLSSLTSEDSAVYYCARFDEGDFWGQGTTLIVSSAKTTAPSVYPLAPVCGDTTGSSV
light: B1 light
B3: M2: mouse monoclonal antibody, heavy chain SEQ ID NO:6, light chain SEQ ID NO:8 (antibody, listed as Mus musculus, V domains shown)
VH: B1 heavy
VL: DIVMTQTPSSLSVSAGEKVTMSCKSSQSLLNSGNQKTYLAWYQQKPGQPPKLLIYGASTRESGVPDRFTGSGSGTDFTLTISSVQAEDLAVYYCQNDHSYPFTFGSGTKLEIKRADAAPTVS

Columns and labels:
MDA-MB-231 cells = test: Wound healing migration assay; format: cell-based; details: cancer cells treated directly with AD
Source text: FIGS. 5A and 5B illustrate the results of studies using a wound healing migration assay. CM-AD from osteocytes inhibits MDA-MB-231 cell migration.
FIG. 6 illustrates results of another wound healing migration assay.
Opening of osteocytic Cx43 hemichannels mediate a negative effect on cancer cell migration. Cx43 hemichannels in osteocytes are opened by administration of AD or FFSS. The opened hemichannels permit the release of various factors into the medium producing a conditioned medium (CM). The released factor(s) in the AD- or FFSS-treated CM decrease cancer cell migration as determined by soft agar and wound healing assays. An example of a soft agar assay is diagrammed in FIG. 3. […] The soft agar assay is an assay for anchorage-independent growth, as contrasted with anchorage-dependent growth. Only cancer cells can grow on soft agar and their growth on this matrix indicates the extent of the cancer cell proliferation.
In certain aspects the methods include incubating primary osteocytes or osteocyte cell lines with a test reagent in α-MEM for various periods of time and collecting the supernatant (conditioned media) at various time points. In certain aspects breast or prostate cancer cells are incubated with CM and cancer cell proliferation, migration, and invasion are determined.

Cx43 hemichannels [1] = biological target: T1, Cx43 hemichannels (Mus musculus, UniProt P23242); details: MLO-A5 osteoblasts, AD treatment
T1 sequence (P23242 whole entry): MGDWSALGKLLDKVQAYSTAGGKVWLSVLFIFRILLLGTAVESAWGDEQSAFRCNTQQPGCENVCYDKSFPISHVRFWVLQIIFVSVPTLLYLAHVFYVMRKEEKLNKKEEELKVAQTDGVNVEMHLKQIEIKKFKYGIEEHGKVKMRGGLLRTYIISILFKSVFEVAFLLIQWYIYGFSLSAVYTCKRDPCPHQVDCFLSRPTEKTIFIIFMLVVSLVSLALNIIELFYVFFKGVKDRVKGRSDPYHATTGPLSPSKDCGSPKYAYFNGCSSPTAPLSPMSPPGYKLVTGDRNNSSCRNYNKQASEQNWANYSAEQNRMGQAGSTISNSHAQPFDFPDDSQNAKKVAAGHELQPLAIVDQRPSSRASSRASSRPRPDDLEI
Protocol: Ethidium bromide dye uptake was conducted and quantified as compared to non-treated basal level of uptake. Study was carried out in calcium conditions. Low calcium conditions were used as control (opens hemichannels). […] MLO-Y4 osteocytic cells were treated with 20 μM AD for 30 min in the absence or presence of 1 μg/ml Cx43(E2) antibody. Ethidium bromide dye uptake assay was conducted and quantified as compared to non-treated basal level of uptake. The assays were carried out in the presence of calcium. Low calcium conditions were used as a control (opens hemichannels).

[2] = biological target: Cx43 hemichannels in osteocytes (Homo sapiens, UniProt P17302); details: Plotkin et al., 2002; cited from earlier work
Cx43 hemichannels in osteocytes, sequence (P17302 whole entry): as the sequence (P23242 whole entry) above, with E124D, V164I, R243K, T251S, P253A, S257A, P263Q, S341N, A344S, V347L counted along it

[3] = biological target: T2, gap junctions (HeLa cells transfected with Cx43) (Homo sapiens, UniProt P17302); test: Microinjection dye transfer (dye coupling) assay for gap junctions; format: cell-based; details: HeLa cells transfected with Cx43, mAbs for 3 h
T2 construct: expressed in transfected cells; host or cells: HeLa cells
T2 sequence (P17302 whole entry): as the sequence (P23242 whole entry) above, with E124D, V164I, R243K, T251S, P253A, S257A, P263Q, S341N, A344S, V347L counted along it
Protocol: (§1) Dye uptake assay was performed in the presence of EtBr with or without mAbs for 20 min. (B) HeLa cells transfected with Cx43 were incubated with mAbs for 3 h and a signal cell was microinjected with AlexaFluor 488 to evaluate the extent of dye transfer assayed for gap junctions.
Dye coupling assay for gap junctions. MLO-Y4 cells were plated on collagen coated 35 mm dish and incubated with recording medium (HCO3^− free αMEM medium buffered with 10 mM HEPES). Cells were microinjected using a micromanipulator InjectMan NI 2 and Femtojet both from Eppendorf (Eppendorf) at 37° C. with alexafluor 350 (Invitrogen, Eugene, Oregon, USA) (10 mM in PBS). Dye transfer was measured after 2 minutes of alexafluor 350 injection. The index of dye coupling was scored counting the number of cells that were dye transferred. Dye coupling was observed under an inverted microscope equipped with Xenon arc lamp illumination and a Nikon eclipse (Nikon, Japan) (excitation wavelengths 330-380 nm; emission wavelengths above 420 nm).

[4] = biological target: T3, gap junction channels (Hela cells transfected with Cx43) (Homo sapiens, UniProt P17302); test: Parachuting dye transfer assay for gap junctions; format: cell-based; details: Hela cells transfected with Cx43, calcein red-orange-AM / Oregon green 488 BAPTA-2-AM
T3 construct: expressed in transfected cells; host or cells: HeLa cells
T3 sequence (P17302 whole entry): as the sequence (P23242 whole entry) above, with E124D, V164I, R243K, T251S, P253A, S257A, P263Q, S341N, A344S, V347L counted along it
Protocol: FIG. 15 illustrates parachuting dye transfer assay showing M2 and M7, but not M1 blocks gap junction channels. Hela cells transfected with Cx43 was used for parachuting dye transfer experiments. Donor cells were incubated with 5 μM calcein red-orange-AM (790 Da) which is permeable to gap junctions and 5 μM Oregon green 488 BAPTA-2-AM (1752 Da) which is non-permeable to gap junctions for 40 minutes at 37° C. Donor cells were treated with trypsin and separated preloaded cells were layered (‘parachuted’) over the top of the unlabeled recipient cells at a 1:4 donor to receiver ratio. Cells were allowed to attach for 90 min. The cells were examined under a fluorescence microscope.
Cell parachute dye-transfer assay for gap junctions. MLO-Y4 cells were grown to confluence in 12 well plates. The donor cells were incubated with 5 μM calcein red-orange-AM (790 Da) and 5 μM Oregon green 488 BAPTA-2-AM (1752 Da) for 40 minutes at 37° C. Gap junction intercellular communication can be followed by simultaneously labeling cells with calcein red-orange as a gap junction permeable tracer dye and the gap junction channel impermeable dye Oregon green 488 BAPTA-2. Donor cells preloaded were remove form the plate by trypsinization. Preloaded cells were layered (‘parachuted’) over the top of the unlabeled recipient cells cultured in at a 1:4 donor to receiver ratio. Cells were allowed to attach for various periods 1 hours, and then carefully washed 3 times and fixed in fresh 2% PFA 10 min RT and rinse 3 times again. The cells were examined with a fluorescence microscope. For calcein red-orange transfer, the threshold was adjusted to clearly distinguish the dye-transfer boundaries. The dye transfer positive criterion was detecting the calcein red-orange/Oregon green 488 BAPTA-2 with contact cells calcein red-orange positive and Oregon green 488 BAPTA-2 negative. The dye transfer was almost undetectable (<1%). The images were taken in places where we found Oregon green 488 BAPTA-2 green positive cells.

[5] = biological target: T4, hemichannel opening in mouse bone osteocytes (Mus musculus, UniProt P23242); test: Evans blue dye uptake in mechanically loaded tibias in vivo; details: 25 mg/kg injected 2 hr before Evans blue dye, tibia loaded 10 min
T4 construct: from tissue; host or cells: tibial bone osteocytes of living WT mice (Cx43 cKO mice as negative control)
T4 sequence (P23242 whole entry): as the sequence (P23242 whole entry) above
Protocol: FIG. 17. […] Mouse IgG or Cx43(M1) mAb (25 mg/kg) was injected 2 hr before Evans blue dye injection Into WT and Cx43 cKO mice. 30 min after dye injection, left (L) tibias were mechanically loaded once for 10 min. Mice were euthanized and perfused with 50 ml PBS. Tibias were isolated and fixed and bone tissue sections were prepared. Bar, […]. The arrowheads indicate dye uptake.
Determining the effect a compound on the opening of hemichannels in osteocytes in bone tissue in vivo. One example of an in vivo assay to analyze hemichannels in osteocytes uses 3-4 month old mice or rats. The animals are weighed. A test reagent is introduced into the animal through intraperitoneal (IP) injection. After 2-4 hours, fluorescence tracer dyes (i.e. Evans blue, Alexa 594) are injected into lateral tail vein of the animal or by IP injection. Note: up to 1% of animal's body weight in volume can be injected. In certain aspects the animal is warmed prior to tail vein injection to dilate the tail vein. After 2-4 hours, the animal is scarified and tibial and femur bones free of muscle tissues are dissected and washed multiple times with PBS. […] The bone sections can be examined under fluorescence microscope and the degree of osteocytes in the bone taking up tracer dyes are quantified using Image J. […]

Cx43 hemichannels [6] = biological target: T1, Cx43 hemichannels; test: Dye uptake assay for hemichannel activity in low Ca2+ and Mg2+ media; format: cell-based; set-up: endogenous in cells; host or cells: MLO-Y4 osteocytic cells; details: MLO-Y4 cells, mAbs for 20 min
Protocol: as §1
(§2) Dye uptake for hemichannel activities. Dye uptake measurements were evaluated using snap shot photographs. MLO-Y4 cells were plated on the collagen coated 35 mm dish and incubated with recording medium, HCO3^− free saline medium buffered with 10 mM HEPES salt composition in mM, 154 NaCl, 5.4 KCl, 1.8 CaCl2, 1.0 MgCl2, 5 Glucose. Medium with low concentration of divalent cation (low[X^2]) was added 0.5 mM EGTA but not CaCl2 and MgCl2. The recording or low[X^2] containing 50 μM EtBr for snap shot recording. Cells were exposed to 100 μM of EtBr during 5 min, then rinsed 3 times with PBS and fixed with 2% […]. At least 3 microphotographs of fluorescence fields were taken with a 10× dry objective in an inverted microscope (Carl Zeiss) with a rhodamine filter. The image analysis was made offline with the software image J. The average of pixel density of 30 random cells was measured.

Cx43 hemichannels [7] = biological target: T1, Cx43 hemichannels; test: Dye uptake after fluid flow shear stress in MLO-Y4 cells; format: cell-based; set-up: endogenous in cells; host or cells: MLO-Y4 osteocytic cells; details: mAbs 20 min pretreatment, fluid flow shear stress 8 dynes/cm^2 10 min, 100 μM EtBr 5 min
Protocol: FIG. 16. […] MLO-Y4 cells were pretreated with or without mAbs for 20 min. The cells were subjected to fluid flow shear stress at 8 dynes/cm^2 for 10 min and dye uptake was performed with 100 μM EtBr for 5 min. Cells were rinsed, fixed and images were taken under fluorescence microscopy.
as §2
Fluid flow shear stress to open hemichannels. Fluid flow was created by parallel-plate flow chambers separated by a gasket of defined thickness with gravity-driven fluid flow using a peristaltic pump. The thickness of the gasket determined the channel height, which was adjusted along with flow rate to generate stress levels of 16 dyn/cm^2. The circulating medium was α-MEM buffered with 10 mM HEPES.

Molecule | direct effect on migration of MDA-MB-231 cells (MDA-MB-231 cells) | opening of Cx43 hemichannels in osteoblasts (Cx43 hemichannels [1]) | opening of Cx43 hemichannels in osteoblasts (Cx43 hemichannels [1]; listed as alendronate) | opening of Cx43 hemichannels in osteocytes [2] | blocking of gap junctions (AlexaFluor 488 dye transfer) [3] | blocking of gap junction channels (parachuting dye transfer) [4] | blocking of hemichannel opening induced by mechanical loading in osteocytes in vivo [5] | blocking of hemichannels (EtBr dye uptake) (Cx43 hemichannels [6]) | blockage of hemichannel opening induced by mechanical loading (Cx43 hemichannels [7])
NCCCC(O)(P(=O)(O)O)P(=O)(O)O [AD, alendronate] | does not have a direct effect; also recorded: not seen | does not open | do not appear to open | induces the opening |  |  |  |  | 
B1 |  |  |  |  | not gap junctions | not | blocks | blocks hemichannels | blockage
B2 |  |  |  |  |  | blocks |  |  | blockage
B3 |  |  |  |  | blocks gap junctions | blocks |  | not hemichannels | not
